These results are taken from patent US12534531 (MacroGenics, dated 2026).

B1: hPD-1 mAb 7 (1.2), constant region not named where tested (antibody, V domains shown)
VH: QVQLVQSGAEVKKPGASVKVSCKASGYSFTSYWMNWVRQAPGQGLEWIGVIHPSDSETWLDQKFKDRVTITVDKSTSTAYMELSSLRSEDTAVYYCAREHYGTSPFAYWGQGTLVTVSS
VL: EIVLTQSPATLSLSPGERATLSCRASESVDNYGMSFMNWFQQKPGQPPKLLIHAASNQGSGVPSRFSGSGSGTDFTLTISSLEPEDFAVYFCQQSKEVPYTFGGGTKVEIK
B2: hPD-1 mAb 15, constant region not named where tested (antibody, V domains shown)
VH: EVQLVESGGGLVRPGGSLRLSCAASGFTFSSYLISWVRQAPGKGLEWVAAISGGGADTYYADSVKGRFTISRDNAKNSLYLQMNSLRAEDTATYYCARRGTYAMDYWGQGTLVTVSS
VL: DIQMTQSPSSLSASVGDRVTITCLASQTIGTWLAWYQQKPGKAPKLLIYAATSLADGVPSRFSGSGSGTDFTFTISSLQPEDFATYYCQQLYSIPWTFGQGTKLEIK
notes: also called humanized PD-1 mAb 15
B3: hPD-1 mAb 2, constant region not named where tested (antibody, V domains shown)
VH: EVQLVESGGGLVQPGGSLRLSCAASGFVFSSFGMHWVRQAPGKGLEWVAYISSGSMSISYADTVKGRFTISRDNAKNTLYLQMNSLRTEDTALYYCASLSDYFDYWGQGTTVTVSS
VL: DVVMTQSPLSLPVTLGQPASISCRSSQSLVHSTGNTYLHWYLQKPGQSPQLLIYRVSNRFSGVPDRFSGSGSGTDFTLKISRVEAEDVGVYYCSQTTHVPWTFGQGTKLEIK
notes: also called humanized PD-1 mAb 2
B4: PD-1 mAb 15 (antibody, V domains shown)
VH: EVMLVESGGGLVKPGGSLKLSCAASGFIFSSYLISWVRQTPEKRLEWVAAISGGGADTYYADSVKGRFTISRDNAKNTLYLQMSSLRSEDTALYYCTRRGTYAMDYWGQGTSVTVSS
VL: DIQMTQSPASQSASLGESVTITCLASQTIGTWLAWYQQKPGKSPQLLIYAATSLADGVPSRFSGSGSGTKFSFKISSLQAEDFVNYYCQQLYSIPWTFGGGTKLEIK
notes: Murine monoclonal antibody
B5: hPD-1 mAb 9 (1.1), constant region not named where tested (antibody, V domains shown)
VH: EVQLVESGGGLVRPGGSLKLSCAASGFTFSSYLVSWVRQAPGKGLEWVATISGGGGNTYYSDSVKGRFTISRDNAKNSLYLQMNSLRAEDTATYYCARYGFDGAWFAYWGQGTLVTVSS
VL: DIQMTQSPSSLSASVGDRVTITCRASENIYSYLAWYQQKPGKAPKLLIYNAKTLAAGVPSRFSGSGSGTDFTLTISSLQPEDFATYYCQHHYAVPWTFGQGTKLEIK
B6: PD-1 mAb A (nivolumab), constant region not named where tested (antibody, V domains shown)
VH: QVQLVESGGGVVQPGRSLRLDCKASGITFSNSGMHWVRQAPGKGLEWVAVIWYDGSKRYYADSVKGRFTISRDNSKNTLFLQMNSLRAEDTAVYYCATNDDYWGQGTLVTVSS
VL: EIVLTQSPATLSLSPGERATLSCRASQSVSSYLAWYQQKPGQAPRLLIYDASNRATGIPARFSGSGSGTDFTLTISSLEPEDFAVYYCQQSSNWPRTFGQGTKVEIK
notes: also called 5C4; BMS-936558
B7: hPD-1 mAb 15 IgG1 (AA) (antibody, V domains shown)
VH: B2 VH
VL: DIQMTQSPSSLSASVGDRVTITCLASQTIGTWLAWYQQKPGKAPKLLIYAATSLADGVPSRFSGSGSGTDFTFTISSLQPEDFATYYCQQLYSIPWTFGQGTKLEIKR
B8: hPD-1 mAb 2 IgG1 (AA) (antibody, V domains shown)
VH: B3 VH
VL: DVVMTQSPLSLPVTLGQPASISCRSSQSLVHSTGNTYLHWYLQKPGQSPQLLIYRVSNRFSGVPDRFSGSGSGTDFTLKISRVEAEDVGVYYCSQTTHVPWTFGQGTKLEIKR
B9: PD-1 mAb A IgG1 (AA) (antibody, V domains shown)
VH: B6 VH
VL: B6 VL
B10: PD-1 mAb 8 (antibody, V domains shown)
VH: EGQLQQSGPELVKPGASVKISCKASGYTFTDYYMNWVKQNHGKSLEWIGDINPKNGDTHYNQKFKGEATLTVDKSSTTAYMELRSLTSEDSAVYYCASDFDYWGQGTTLTVSS
VL: DVVMTQTPLSLPVGLGDQASISCRSSQTLVYSNGNTYLNWFLQKPGQSPKLLIYKVSNRFSGVPDRFSGSGSGTDFTLKISRVEAEDLGVYFCSQSTHVPFTFGSGTKLEIK
notes: Murine monoclonal antibody
B11: PD-1 mAb 14 (antibody, V domains shown)
VH: QVQLQQPGAELVKPGASVKMSCKASGYNFISYWITWVKQRPGQGLQWIGNIYPGTDGTTYNEKFKSKATLTVDTSSSTAYMHLSRLTSEDSAVYYCATGLHWYFDVWGTGTTVTVSS
VL: DIVMTQSQKFMSTSVGDRVSVTCKASQSVGTNVAWYQQKPGQSPKALIYSASSRFSGVPDRFTGSGSGTDFTLTISNVQSEDLAEYFCQQYNSYPYTFGGGTKLEIK
notes: Murine monoclonal antibody
B12: PD-1 mAb 10 (antibody, V domains shown)
VH: EVILVESGGGLVKPGGSLKLSCAASGFTFSNYLMSWVRQTPEKRLEWVASISGGGSNIYYPDSVKGRFTISRDNAKNTLYLQMNSLRSEDTALYYCARQELAFDYWGQGTTLTVSS
VL: DIQMTQTTSSLSASLGDRVTISCRTSQDISNFLNWYQQKPDGTIKLLIYYTSRLHSGVPSRFSGSGSGTDYSLTISNLEQEDIATYFCQQGSTLPWTFGGGTKLEII
notes: Murine monoclonal antibody
B13: PD-1 mAb 13 (antibody, V domains shown)
VH: EVMLVESGGGLVKPGGSLKLSCAASGFTFSSHTMSWVRQTPEKRLEWVATISGGGSNIYYPDSVKGRFTISRDNAKNTLYLQMSSLRSEDTALYYCARQAYYGNYWYFDVWGTGTTVTVSS
VL: B4 VL with S10T, N85S, Y92D
notes: Murine monoclonal antibody
B14: PD-1 mAb 12 (antibody, V domains shown)
VH: QGHLQQSGAELVRPGASVTLSCKASGFTFTDYEMHWVKQTPVHGLEWIGTIDPETGGTAYNQKFKGKAILTVDKSSTTTYMELRSLTSEDSAVFYCSRERITTVVEGAYWYFDVWGTGTTVTVSS
VL: DVLMTQTPLSLPVSLGDQASISCRSSQNIVHSNGNTYLEWYLQKPGQSPKLLICKVSTRFSGVPDRFSGSGSGTDFTLKISRVEAEDLGVYYCFQGSHVPYTFGGGTKLEIK
notes: Murine monoclonal antibody
B15: PD-1 mAb 11 (antibody, V domains shown)
VH: EVQLQQSGTVLARPGASVKMSCKTSGYTFTGYWMHWVKQRPGQGLKWMGAIYPGNSDTHYNQKFKGKAKLTAVTSASTAYMELSSLTNEDSAIYYCTTGTYSYFDVWGTGTTVTVSS
VL: DILLTQSPAILSVSPGERVSFSCRASQSIGTSIHWYQHRTNGSPRLLIKYASESISGIPSRFSGSGSGTDFTLSINSVESEDIADYYCQQSNSWLTFGAGTKLELK
notes: Murine monoclonal antibody

For orientation: Kd means a measure of binding affinity in units of concentration. As a reminder, the EC50 (read off the curve) is the midpoint of the concentration-response curve.

Where a chain is given by its changes, count along the chain named.

T3 sequence (Q15116 21-288): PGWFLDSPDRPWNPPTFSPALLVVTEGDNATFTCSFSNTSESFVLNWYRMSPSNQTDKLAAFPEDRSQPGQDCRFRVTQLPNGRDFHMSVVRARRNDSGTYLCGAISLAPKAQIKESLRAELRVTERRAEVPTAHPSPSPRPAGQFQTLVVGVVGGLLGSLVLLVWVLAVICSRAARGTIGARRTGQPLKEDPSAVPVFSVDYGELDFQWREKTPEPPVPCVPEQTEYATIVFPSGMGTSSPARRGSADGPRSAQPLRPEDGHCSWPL
T2 sequence (B0LAJ3 entry or part of it limits assumed): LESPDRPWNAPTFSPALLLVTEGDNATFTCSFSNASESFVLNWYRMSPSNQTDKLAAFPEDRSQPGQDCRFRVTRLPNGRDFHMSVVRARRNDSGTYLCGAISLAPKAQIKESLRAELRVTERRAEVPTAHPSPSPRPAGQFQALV
T4 sequence (Q15116 25-170): as the sequence (B0LAJ3 entry or part of it limits assumed) above, with E2D, A10P, L19V, A35T, R75Q, A144T counted along it

For one assay, the target named is T1, soluble human PD-1 (the extracellular domain of human PD-1 fused to a His tag) (human, UniProt Q15116 25-170).
T1 construct: also called shPD-1 His; shPD-1-His; not shown: His tag
T1 sequence (Q15116 25-170): as the sequence (B0LAJ3 entry or part of it limits assumed) above, with E2D, A10P, L19V, A35T, R75Q, A144T counted along it
The experiment in a line: Biacore, mAb captured on Protein A, analyte shPD-1 His. (In general: In SPR one partner is held on a chip, and binding of the other changes the refractive index at the surface.)
On to B1, for which the Kd came out at 0.39 nM.

For the molecule B2, the affinity, expressed as Kd, was 13.3 nM.

Turning to B3, the equilibrium dissociation constant (Kd) stood at 5 nM.

On to B4, for which binding was characterised by a dissociation constant (Kd) of 2.9 nM.

Regarding B5, the dissociation constant Kd came to 36.1 nM.

A further assay addresses T2, soluble cynomolgus monkey PD-1 (scyno PD-1 hFc) cleaved to remove Fc portion (cynomolgus monkey, UniProt B0LAJ3 25-170). The assay can be described thus: Biacore, mAb captured on Protein A, analyte scyno PD-1 hFc cleaved of Fc.
Take B6: the Kd stood at 6.9 nM.

B1 gave a Kd of 1.7 nM.

B2 displayed a Kd of 78.3 nM.

Turning to B3, the Kd came to 17 nM.

For the molecule B4, binding was put at a Kd of 40.7 nM.

B5 came in with a dissociation constant Kd of 73.3 nM.

A further assay addresses T3, human PD-1 expressed on the surface of cells (NSO cells expressing human PD-1; MNFAT-luc2/PD-1 Jurkat cells) (human, UniProt Q15116 21-288).
T3 construct: also called cell surface PD-1; PDCD1 transfected NSO cells expressing PD-1
The experiment in a line: FACS blocking on NSO cells expressing human PD-1, 1:4 dilutions, MFI; blocked ligand: biotinylated sPD-L1, streptavidin-PE.
On to B7, for which the “IC50 (read off the curve)” value was approximately 0.04 ug/test.

Take B8: the “IC50 (read off the curve)” value was approximately 0.04 ug/test.

The target in the next assay is T3, human PD-1 expressed on the surface of …. The experiment in a line: FACS saturation binding on NSO cells expressing human PD-1, goat anti-human-APC, MFI, 1:4 dilutions.
In the case of B8, the concentration for a half-maximal effect (EC50 (read off the curve)) is approximately 0.5 µg/mL.

For another assay, the target named is T2, soluble cynomolgus monkey PD-1 (scyno …). The assay can be described thus: Biacore, mAb captured on F(ab)2 goat anti-human Fc, analyte scyno PD-1 hFc cleaved of Fc.
Turning to B9, the Kd stood at 5.6 nM.

A further assay has as its target T4, soluble human PD-1 (the extracellular domain of human PD-1 fused to a human Fc Region) (human, UniProt Q15116 25-170).
T4 construct: whole entry named; also called shPD-1 hFc; shPD-1-human Fc; not shown: human Fc Region
The experiment in a line: ELISA: shPD-1 hFc coated at 0.5 ug/ml, goat anti-mouse IgG (H+L) detection, RLU. A general note: ELISA stands for enzyme-linked immunosorbent assay.
B10: the binding result was “binds”.

Take B11: the binding result was “binds”.

B12: the binding result is given as “binds”.

With B13, the binding result is reported as “binds”.

B4: the binding result is listed as “binds”.

Take B14: the binding result is listed as “binds”.

For the molecule B15, the binding result is “binds”.

The target of another assay is T3, human PD-1 expressed on the surface of …. The experiment in a line: FACS blocking on NSO cells expressing human PD-1, 1:4 dilutions, MFI; blocked ligand: biotinylated sPD-L2, streptavidin-PE.
B7: the “IC50 (read off the curve)” value was approximately 0.09 ug/test.

Consider B8, for which the “IC50 (read off the curve)” value is approximately 0.1 ug/test.

The target in a further assay is T5, soluble cynomolgus monkey PD-1 (the extracellular domain of cynomolgus monkey PD-1 fused to a human Fc Region) (cynomolgus monkey, UniProt B0LAJ3 25-170).
T5 construct: also called scyno-PD1 Fc; scynoPD-1-hFc; not shown: Human Fc Region and any linker or cleavage site between the extracellular domain and the Fc
T5 sequence (B0LAJ3 entry or part of it limits assumed): as the sequence (B0LAJ3 entry or part of it limits assumed) above
The experiment in a line: ELISA: scyno-PD-1-TEV-Fc coated at 1 ug/ml, goat anti-mouse IgG (H+L) detection, RLU.
Turning to B10, the binding result is given as “binds”.

B11: the binding result is recorded as “binds”.

Take B12: the binding result is reported as “binds”.

Turning to B13, the binding result is “binds”.

In the case of B4, the binding result is recorded as “binds”.

As for B14, the binding result is recorded as “binds”.

In the case of B15, the 50% effective concentration (EC50 (read off the curve)) was approximately 0.2 µg/mL.

Another assay concerns the target T1, soluble human PD-1 (the extracellular …). The experiment in a line: ELISA: shPD-1 His coated at 0.5 ug/ml, goat anti-mouse IgG (H+L) detection, RLU.
For B10, the binding result was “binds”.

In the case of B11, the binding result is recorded as “binds”.

In the case of B12, the binding result was “binds”.

As for B13, the binding result was “binds”.

For the molecule B14, the binding result is “binds”.

As for B15, the concentration giving a half-maximal response (EC50 (read off the curve)) was approximately 0.2 µg/mL.
